Data published in patent US20090285813A1.
Numbering of substitutions follows the chain as printed.

B1: anti-CD3 HuFR antibody 3 (heavy chain BD20611, light chain BD21132) (antibody, part only; not given: Heavy stretch before framework 4, V domains shown, part only)
VH, part: QVQLVESGAEVKKPGASVKVSCKASGYTFTRYTMHWVRQAPGKGLEWMGYINPSRGYTNYNQKFKDRLTISKDTSKNQVVLTMTNMDPVDTATYYCARYYDDHYCLDYVTVSSASTKGPS
VL: EIVLTQSPATLSLSPGERATLSCSASSSVSYMNWYQQKPGKAPKLLIYDTSKLASGVPSRFSGSGSGTEFTLTISSLQPDDFATYYCQQWSSNPFTFGQGTKVEIKFGQGTKVEIKR
B2: anti-CD3 HuFR antibody 5 (heavy chain BD20611, light chain BD21134) (antibody, part only; not given: Heavy stretch before framework 4, V domains shown, part only)
VH, part: B1 VH, part
VL: B1 VL with L4M, L13V, K41Q, A42P
B3: anti-CD3 HuFR antibody 4 (heavy chain BD20611, light chain BD21133) (antibody, part only; not given: Heavy stretch before framework 4, V domains shown, part only)
VH, part: B1 VH, part
VL: DIVMTQSPLSLPVTPGEPASISCSASSSVSYMNWYQQKPGQPPKLLIYDTSKLASGVPSRFSGSGSGTEFTLTISSLQPDDFATYYCQQWSSNPFTFGQGTKVEIKFGQGTKVEIKR
B4: anti-CD3 HuFR antibody 8 (heavy chain BD20611, light chain BD21137) (antibody, part only; not given: few VH framework 4 residues, V domains shown, part only)
VH, part: B1 VH, part
VL: DIQMTQSPSTLSASVGDRVTITCSASSSVSYMNWYQQKPGQPPKLLIYDTSKLASGVPSRFSGSGSGTDFTFTISSLQPEDIATYYCQQWSSNPFTFGQGTKVEIKFGQGTKVEIKR
B5: anti-CD3 HuFR antibody 6 (heavy chain BD20611, light chain BD21135) (antibody, part only; not given: Heavy stretch before framework 4, V domains shown, part only)
VH, part: B1 VH, part
VL: B1 VL with L4M, L13V, K41Q, K44R, S59D, E69D, P79A, D80E, F82V, T84V
B6: anti-CD3 HuFR antibody 1 (heavy chain BD20610, light chain BD21130) (antibody, part only; not given: Heavy stretch before framework 4, V domains shown, part only)
VH, part: QVQLVESGAEVKKPGASVKVSCKASGYTFTRYTMHWVRQAPGKGLEWMGYINPSRGYTNYNQKFKDRVTISVDTSKNQFSLKLSSVTAADTAVYYCARYYDDHYCLDYVTVSSASTKGPS
VL: DIQMTQSPSSLSASVGDRVTITCSASSSVSYMNWYQQKPGQPPKLLIYDTSKLASGVPDRFSGSGSGTDFTLKISRVEAEDVGVYYCQQWSSNPFTFGQGTKVEIKFGQGTKVEIKR
B7: anti-CD3 HuFR antibody 2 (heavy chain BD20613, light chain BD21131) (antibody, part only; not given: few VH framework 4 residues, V domains shown, part only)
VH, part: QVQLQESGPGLVKPSETLSLTCAVSGYTFTRYTMHWVRQAPGKGLEWVGYINPSRGYTNYNQKFKDRFTISRDDSKNTAYLQMNSLKTEDTAVYYCTRYYDDHYCLDYVTVSSASTKGPS
VL: B6 VL with S10T, P42A, K44R
B8: anti-CD3 HuFR antibody 7 (heavy chain BD20611, light chain BD21136) (antibody, part only; not given: Heavy stretch before framework 4, V domains shown, part only)
VH, part: B1 VH, part
VL: B6 VL with S10T, Q41K, P42A, V57I, K73T, V77L, A79P, V82F, G83A
B9: anti-CD3 HuFR antibody 9 (heavy chain BD20613, light chain BD21138) (antibody, part only; not given: few VH framework 4 residues, V domains shown, part only)
VH, part: B7 VH, part
VL: B6 VL with S10T, Q41K, P42A

Each binder was assayed against human CD3 (human) (UniProt P07766) (assay: cell-based or functional assay).
Sequence of human CD3 (human) (P07766 23-207): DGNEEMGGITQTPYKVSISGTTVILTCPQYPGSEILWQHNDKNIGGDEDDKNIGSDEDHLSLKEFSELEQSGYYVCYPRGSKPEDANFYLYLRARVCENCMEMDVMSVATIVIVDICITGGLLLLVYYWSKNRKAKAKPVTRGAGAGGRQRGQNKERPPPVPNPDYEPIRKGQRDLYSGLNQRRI

Binder	Apo-One Apoptosis Assay, 12.5 ng/ml	Apo-One Apoptosis Assay, 12.5 ng/ml, second block (ratio to Fc null)	Apo-One Apoptosis Assay, 25 ng/ml	Apo-One Apoptosis Assay, 25 ng/ml, second block (ratio to Fc null)	Apo-One Apoptosis Assay, 50 ng/ml	Apo-One Apoptosis Assay, 50 ng/ml, second block (ratio to Fc null)
B1	649	1.3	854	1.2	1130	1
B2	1160	2.4	1660	2.3	2160	1.8
B3	1390	2.8	2350	3.2	3300	2.8
B4	969	2	1630	2.2	2560	2.1
B5	1280	2.6	2220	3.1	3500	2.9
B6	797	1.6	1220	1.7	1750	1.5
B7	854	1.7	1440	2	2160	1.8
B8	2270	4.6	3480	4.8	4740	4
B9	885	1.8	1380	1.9	2040	1.7
